B1: LOXL2 (parent)
chain: RLLRFSSQIHNNGQSDFRPKNGRH
B2: EPB41L3 (parent)
chain: KKFLTLGSKFRYSGRTQAQTRRAS

Variants of: B1
Assay: protein stability index of a GFP-peptide fusion (GPS, HEK-293T) (PSI 1-6); higher = more stable
Conditions: c terminus: a fixed tail appended
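Also: lentivirally expressed fusions sorted by FACS into six bins by GFP to DsRed ratio, PSI derived from sequencing read proportions per bin multiplied by bin number.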

Protein stability index of substitutions, site by site:
R23: Q 2.4; S 3.14; T 3.29; V 2.41; W 1.91; Y 2.61
H24: A 2.88; C 2.14; D 2.86; E 3.12; F 2.38; G 3.2; I 2.54; K 3.5; L 2.47; M 2.68; N 2.89; P 2.95; Q 3.16; R 2.74; S 3; T 2.76; V 2.52; W 2.83; Y 2.67

Variants of: B2
Assay: as above
Conditions: c terminus: a fixed tail appended

Protein stability index: each site, then its substitutions
K1: A 2.2; C 2.56; D 2.43; F 2.45; G 3.83; H 2.56; I 2.42; L 1.91; M 4.46; N 3.5; P 2.18; R 3.7; S 2.76; T 2.38; V 2.25; W 1.91; Y 2.23
K2: A 2.14; C 2.6; D 2.44; E 2.47; F 4.04; G 2.59; H 2.4; I 2.54; L 1.57; N 2.85; P 2.84; Q 2.06; R 4.02; S 2.74; T 2.44; V 2.23; W 2.31; Y 2.22
F3: A 3.62; C 3.76; D 3.81; E 3.11; H 3.82; I 3.32; K 3.65; L 3.22; M 3.56; N 3.59; P 3.6; Q 2.95; R 4.15; S 3.78; T 3.48; V 3.07; Y 3.58
L4: A 2.98; C 3.06; D 3.63; E 2.85; F 2.99; G 3.36; H 3.44; I 2.56; K 3.33; M 3.19; N 3.44; P 3.8; Q 2.38; R 3.13; S 2.91; T 3.11; V 3.02
T5: A 3.78; C 2.21; D 1.62; E 2.96; F 1.84; G 3.25; H 2.82; I 2.27; K 3.39; M 2.74; N 3.47; P 2.67; Q 3.38; R 3.06; S 3.05; W 1.56; Y 1.88
L6: A 4.31; C 3.17; D 4.05; E 4.08; H 3.38; I 2.75; K 3.64; M 2.64; N 3.44; P 3.57; Q 3.97; S 2.52; T 3.88; V 3.61; Y 2.48
G7: A 2.95; C 2.38; D 3.3; F 2.4; H 2.51; I 1.35; K 2.37; L 2.25; M 2.09; N 2.88; P 3.18; Q 2.85; S 3.04; T 3.58; V 2.26; W 1.52; Y 3.02
S8: A 3.02; C 2.04; D 2.86; E 3.26; F 2.43; G 2.81; H 3.01; I 2.33; K 2.56; L 2.17; M 2.74; N 2.89; P 2.16; Q 2.78; R 3.46; T 2.88; V 2.81; Y 3.4
K9: A 1.96; C 1.66; D 2.01; E 1.34; F 2.13; H 2.11; I 2.6; L 2.29; M 2.27; N 1.99; Q 1.79; T 2.13; V 2.23; Y 2.85
F10: C 3.11; D 3.88; H 4.22; I 3.63; K 4.16; L 4.09; M 3.59; N 3.59; P 4.07; Q 3.88; S 4.22; T 3.54; V 2.92; W 2.77; Y 3.21
R11: A 3.11; C 3.96; D 4.24; F 2.48; G 3.57; H 3.7; I 2.89; K 2.92; L 2.43; N 2.63; P 3.08; S 3.4; T 3.6; V 3.17
Y12: A 4.58; C 2.54; F 2.6; I 3.69; K 3.01; M 3.9; P 3.23; Q 3.82; R 4.02; T 3.96
S13: A 2.63; C 1.41; D 2.85; E 4.01; F 2.67; G 2.88; H 2.68; I 2.34; K 3.96; M 2.87; N 3.95; P 2.55; Q 3.04; T 2.74; V 2.01; W 2.91; Y 3.1
G14: A 3.42; C 2.06; D 2.81; E 3.75; F 2.56; H 3.57; I 2.44; K 3.1; L 4.04; M 3.71; N 3.67; P 3.46; Q 3.56; R 3.38; S 3.34; T 3.81; V 2.96; W 4.87; Y 3.03
R15: A 3.32; C 2.66; D 3.81; E 2.89; F 2.19; G 2.33; H 3.12; I 2.19; K 2.85; L 2.64; M 2.49; N 2.77; P 2.58; Q 3.3; S 2.53; T 3.4; V 2.93; W 2.05; Y 2.16
T16: A 2.53; C 2.2; D 2.87; E 3.38; F 2.94; G 2.54; H 2.93; I 2.83; K 3.02; L 2.52; M 2.99; N 3.28; Q 2.94; R 3.13; S 3.36; V 2.74; W 1.84; Y 3.72
Q17: A 2.32; C 2.94; D 2.95; E 2.76; F 1.76; G 2.63; H 3.25; I 2.57; K 2.11; L 2.77; M 2.77; N 2.01; R 2.95; S 2.01; T 2.38; V 2.24; Y 2.12
A18: E 3.23; F 2.44; H 2.49; I 2.91; K 2.61; L 2.44; M 2.77; N 3.55; P 2.92; Q 2.73; S 3.19; T 3.1; V 2.84; Y 3.11
Q19: A 2.68; C 2.77; D 1.2; E 2.69; F 2.1; H 2.52; I 2.37; N 3.41; P 3.19; R 3.03; S 2.45; T 2.61; W 2.58; Y 2.22
T20: A 2.64; C 3.77

From the supplement of paper PMC10567573
